Measurements from paper doi:10.1101/2022.01.19.476892 (bioRxiv, 2022).

Molecular target: SARS-CoV S-6P protein (SARS-CoV; strain of S-6P  …, UniProt P59594, stabilised)
Assay: cryo-EM structure

B1: antigen-binding fragment (Fab) of VacW-209 (Fab, V domains shown)
VH: QVQLVESGGGVVQPGRSLRLSCAASGFTFSSIAMHWVRQAPGKGLEWVAVMSFDGSIKYYGDSVKGRFTISRDNSKSTLYLQMNSLRAEDTAVYYCARGVQGYYDRSGYYNLDYNYGMDVWGQGTTVTVSS
VL: QSVLTQPPSVSGAPGQRVTISCTGSSSNIGAGYDVHWYQQLPGTAPKLLIYGNSNRPSGVPDRFSGSKSGTSASLAITGLQAEDEADYYCQSYDSSLSGWVFGGGTKLTVL
- stoichiometry N: 3 Fabs per spike trimer
